Experimental data from patent publication US20180282422A1 (DINGFU BIOTARGET, published 2018).

Tests used:
[1] = target: T1, hCD137-muFc (human; mouse, UniProt Q07011 24-186); assay: SPR, BIAcore X100; scFv captured by anti-hFc on a CM5 chip, CD137-muFc as analyte 1000-31.6 nM; 1:1 Langmuir model
T1 construct: range 1-186; It states no cleavage site; Made in HEK293 and purified on protein A; also called recombinant human CD137; not shown: mouse IgG1-Fc (muFc) domain, residues 98-324 of UniProt P01868
Experimental: (§1) The binding kinetics of anti-hCD137 C2scFv and C14 scFv antibodies against the recombinant human CD137 were measured by surface plasmon resonance (SPR) process using a BIAcore X100 instrument. Anti-hFc antibody (not cross-identifying mouse Fc) was conjugated on CM5 chip, C2 scFv or C14 scFv was diluted to 5 nM with running buffer and captured as a ligand by the antibody on the chip. CD137-muFc was diluted with running buffer to 1000-31.6 nM, diluted twice to a total of 6 concentrations. The injection time was 180 s, the dissociation time was 1800 s and the regeneration time was 60 s. The running buffer was HBS-EP+, and the regeneration buffer was 10 mM glycine-HCl (pH 2.0). The association rate (Kₒₙ) and the dissociation rate (Koff) were calculated using a simple one-to-one Languir binding model (BIAcore Evaluation Software version 3.2). The equilibrium dissociation constant (KD) was calculated as the ratio of Koff/Kₒₙ.

[2] = target: T2, hGITR-EGFP on HEK293 cells (human, UniProt Q9Y5U5 26-241); assay: flow cytometry on transfected HEK293 cells, anti-hIg-PE
T2 construct: EGFP fusion on transfected HEK293 cells; not shown: enhanced green fluorescent protein (EGFP), UniProt C5MKY7
T2 sequence (looked up): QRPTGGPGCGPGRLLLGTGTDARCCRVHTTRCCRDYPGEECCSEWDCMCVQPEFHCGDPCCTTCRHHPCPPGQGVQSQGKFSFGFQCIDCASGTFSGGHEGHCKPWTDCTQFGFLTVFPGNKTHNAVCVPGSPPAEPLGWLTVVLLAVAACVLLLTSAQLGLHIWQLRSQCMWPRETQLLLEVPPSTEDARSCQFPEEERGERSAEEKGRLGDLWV
Experimental: (§2) HEK293 cells expressing hCD137-EGFP, hOX40-EGFP, hCD27-EGFP and hGITR-EGFP constructed in Example 1 were resuspended in 0.5% PBS-BSA Buffer and anti-hCD137 C2scFv and C14 scFv protein were added, the negative control was hIgG Fe protein, then the mixture was incubated on ice for 20 min. After washing, secondary antibody anti-hIg-PE (eBioscience) was added and was incubated on ice for 20 min. After washing, the cells were resuspended in 500 μL of 0.5% PBS-BSA Buffer and detected by flow cytometry.
(§3) HEK293 cells expressing hCD137-EGFP, hOX40-EGFP, hCD27-EGFP and hGITR-EGFP constructed in Example 1 were resuspended in 0.5% PBS-BSA Buffer and anti-hCD137 C14 mAb protein was added, the negative control was hIgG Fc protein, then the mixture was incubated on ice for 20 min. After washing, a secondary antibody anti-hlg-PE (eBioscience) was added and incubated on ice for 20 min. After washing, the cells were resuspended in 500 μL 0.5% PBS-BSA Buffer and detected by flow cytometry.

[3] = target: T3, hCD27-EGFP on HEK293 cells (human, UniProt P26842 20-260); assay: as above
T3 construct: EGFP fusion on transfected HEK293 cells; not shown: enhanced green fluorescent protein (EGFP), UniProt C5MKY7
T3 sequence (looked up): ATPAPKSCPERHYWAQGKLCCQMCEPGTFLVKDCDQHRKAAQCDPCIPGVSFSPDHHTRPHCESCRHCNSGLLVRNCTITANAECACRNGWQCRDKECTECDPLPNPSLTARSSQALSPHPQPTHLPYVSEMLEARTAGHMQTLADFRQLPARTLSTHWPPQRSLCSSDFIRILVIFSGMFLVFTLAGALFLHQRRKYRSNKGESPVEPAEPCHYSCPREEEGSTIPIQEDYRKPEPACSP
Experimental: as §2, §3

[4] = target: T4, hOX40-EGFP on HEK293 cells (human, UniProt P43489 29-277); assay: as above
T4 construct: EGFP fusion on transfected HEK293 cells; not shown: enhanced green fluorescent protein (EGFP), UniProt C5MKY7
T4 sequence (looked up): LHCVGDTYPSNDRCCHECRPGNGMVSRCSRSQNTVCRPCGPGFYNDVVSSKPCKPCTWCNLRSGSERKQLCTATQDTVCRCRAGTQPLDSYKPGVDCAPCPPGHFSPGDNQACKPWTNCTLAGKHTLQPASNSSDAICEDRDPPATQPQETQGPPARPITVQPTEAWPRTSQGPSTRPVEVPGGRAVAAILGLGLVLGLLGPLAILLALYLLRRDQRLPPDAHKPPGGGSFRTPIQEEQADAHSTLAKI
Experimental: as §2, §3

[5] = target: T1, hCD137-muFc; assay: SPR, BIAcore X100; anti-hFc on a CM5 chip, CD137-muFc as analyte 100-3.16 nM; 1:1 Langmuir model
Experimental: as §1, with “antibody” for “C2scFv and C14 scFv antibodies”, “CD137-muFc” for “C2 scFv or C14 scFv”, “nM (C14Mab) or 100-3.16 nM (C14 Mab new),” for “nM,”

[6] = target: T5, RhCD137-muFc (rhesus monkey; mouse); assay: ELISA, RhCD137-muFc coated at 5 ug/mL, antibody titrated 3-fold, goat anti-hIgG-HRP, OD450-650
T5 construct: Residues 1-186 as stated; no signal peptide cleavage site is stated; also called Rhesus monkey CD137; CD137 of rhesus monkey
T5 chain: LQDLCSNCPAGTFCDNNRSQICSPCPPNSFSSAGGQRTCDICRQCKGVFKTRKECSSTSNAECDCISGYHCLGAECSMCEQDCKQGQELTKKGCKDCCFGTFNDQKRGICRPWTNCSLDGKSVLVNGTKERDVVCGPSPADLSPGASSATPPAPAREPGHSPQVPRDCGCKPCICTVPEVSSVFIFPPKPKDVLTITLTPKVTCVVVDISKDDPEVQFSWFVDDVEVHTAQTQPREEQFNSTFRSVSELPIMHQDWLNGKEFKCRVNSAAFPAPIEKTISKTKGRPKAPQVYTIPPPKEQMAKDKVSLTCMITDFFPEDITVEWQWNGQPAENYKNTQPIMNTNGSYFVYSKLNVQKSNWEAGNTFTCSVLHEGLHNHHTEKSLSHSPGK
Experimental: RhCD137-muFc was diluted to 5 μg/mL 100 μL/well, with coating buffer (50 mM Na₂CO₃, NaHCO₃ pH 9.6), overnight at 4° C. After washing, the plates were blocked with 3% BSA-PBS for 1 h at 37° C. Anti-hCD137 14#mAbnew antibodies were respectively diluted from 2000 ng/mL and were diluted 3-fold, with the diluent (1% BSA-PBS) as a control, and incubated for 2 h at 37° C. Goat anti-hIgG-HRP conjugated was added and incubated for 1 h at 37° C. The soluble one-component TMB substrate developing solution was added, and the developing was performed in dark at room temperature for 5-10 min. 2N H₂SO₄ 50 μL/well was added to terminate the color development reaction. The OD_{450 nm-650 nm} values were read on MD Spectra Max Plus 384 microplate reader, and SoftMax Pro v5.4 was used for data processing and diagraph analysis, with the results shown in FIG. 8, in which it can be seen that anti-hCD137 14#mAb new may bind to CD137 of rhesus monkey.

B1: anti-hCD137 C14 scFv (scFv)
scFv: QVQLQQSGPGLVKPSQTLSLTCAISGDSVSSNSAAWNWIRQSPSRGLEWLGRTYYRSKWYNDYAPSVESRITINPDTSKNQFSLQLSSVTPEDTAVYYCARDPPYVLSTFDIWGQGTMVTVSSGGGGSGGGGSGGGGSNFMLTQPPSVSESPGKTVTISCTRSSGNIASFYVQWFQQRPGSSPTTVIYEDDQRPSGVPDRFSGSIDRSSNSASLTISGLTTDDEADYYCQSYDTNNVIFGGGTKLTVL
notes: The junction between scFv and Fc is not described; also called anti-CD137 14#ScFv; not shown: human IgG1-Fc domain, residues 104-330 of UniProt P01857
Question: How did the Kd [1] turn out when B1 was run?
Answer: 23.8 nM

Question: And the koff [1]?
Answer: 0.000263 s⁻¹

Question: What about the kon [1] of the same binder?
Answer: 11200 M⁻¹ s⁻¹

Question: Does B1 bind [2]?
Answer: no binding

Question: Does B1 bind [3]?
Answer: no binding

Question: Does B1 bind [4]?
Answer: no binding

B2: anti-hCD137 C2 scFv (scFv)
scFv: EVQLVESGGGLVQPGGSLRLSCAASGFTVSDYYMNWIRQAPGKGLEWVSYISSSASGSTIYYADSVKGRFTISRDNANNSLYLHMDSLRAEDTAIYFCARVVPAGSGWRWFDPWGQGTLVTVSSGGGGSGGGGSGGGGSQSVLIQPPSASGSPGQSVTISCTGISSDVGAYDYVSWYQQHPGKVPKLMIYEVSKRPSGVPDRFSGSKSGDTASLTVSGLQAEDEADYYCSSHAGSNNFYVFGTGTKLTVL
notes: The junction between scFv and Fc is not described; not shown: human IgG1-Fc domain, residues 104-330 of UniProt P01857
Question: Which results are given for B2?
Answer: Kd [1]: 11.6 nM; koff [1]: 0.000128 s⁻¹; kon [1]: 11000 M⁻¹ s⁻¹; binding result [2]: no binding; binding result [3]: no binding; binding result [4]: no binding

B3: anti-CD137 14#mAb new (antibody, V domains shown)
VH: QVQLQQSGPGLVKPSQTLSLTCAISGDSVSSNSAAWNWIRQSPSRGLEWLGRTYYRSKWYNDYAPSVESRITINPDTSKNQFSLQLSSVTPEDTAVYYCARDPPYVLSTFDIWGQGTMVTVSS
VL: NFMLTQPPSVSESPGKTVTISCTRSSGNIASFYVQWFQQRPGSSPTTVIYDDDQRPSGVPDRFSGSIDRSSNSASLTISGLTTDDEADYYCQSYDINKVIFGGGTKLTVL
notes: L50 E to D, L93 T to I and L95 N to K against C14; IgG4 / lambda; also called C14 mAbnew; C14 Mab new; not shown: human IgG4 constant region, UniProt P01861 (same method as C14mAb); human lambda light chain constant region, UniProt A0M8Q6 (same method as C14mAb)
Question: With B3 as the binder, how does the Kd [5] read?
Answer: 2.68 nM

Question: What about the koff [5] of the same binder?
Answer: 0.000907 s⁻¹

Question: What about the kon [5] of the same binder?
Answer: 338000 M⁻¹ s⁻¹

Question: Does B3 bind [6]?
Answer: binds

B4: anti-hCD137 C14 mAb (antibody, human IgG4, V domains shown)
VH: QVQLQQSGPGLVKPSQTLSLTCAISGDSVSSNSAAWNWIRQSPSRGLEWLGRTYYRSKWYNDYAPSVESRITINPDTSKNQFSLQLSSVTPEDTAVYYCARDPPYVLSTFDIWGQGTMVTVSS
VL: NFMLTQPPSVSESPGKTVTISCTRSSGNIASFYVQWFQQRPGSSPTTVIYEDDQRPSGVPDRFSGSIDRSSNSASLTISGLTTDDEADYYCQSYDTNNVIFGGGTKLTVL
notes: domain: constant region; Human IgG4 / lambda antibody made in HEK293; also called anti-CD137 14#mAb; not shown: human immunoglobulin lambda light chain constant region, UniProt A0M8Q6
Question: Does B4 bind [2]?
Answer: no binding

Question: Does B4 bind [3]?
Answer: no binding

Question: Does B4 bind [4]?
Answer: no binding
